According to the supplement of paper PMC10065799, “High-throughput profiling of sequence recognition by tyrosine kinases and SH2 domains using bacterial peptide display” (eLife, 2023):

Each sequence was assayed against Grb2 SH2 (UniProt P62993) (assay: SH2 binding enrichment of the phosphorylated peptide, bacterial display (enrichment ratio); higher = better substrate or ligand; peptides without Tyr show the background).
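Throughout, for SH2 binding enrichment of the phosphorylated peptide, bacterial display: peptide library displayed on the E. coli surface as eCPX fusions, selected cells deep-sequenced, score is each peptide's frequency after selection divided by its frequency in the input.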
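Throughout, for phosphorylation enrichment, bacterial display: 11-residue human phosphosite peptides and single-mutation variants displayed on the E. coli surface, counted by deep sequencing, each peptide's frequency after selection divided by its frequency in the unselected input library; frequency after pTyr selection over input frequency; kinase dosed for 20-30% of maximal phosphorylation in three min.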

SH2 binding enrichment | Sequence
0.965 | QVQQIYSDSDL [MIB1_Y376_R371Q]
0.776 | TSESSYFKSLN [NGEF_Y288_A286S_YF]
1.12 | KALSLYTKLMN [STAM_Y371_E366K]
0.62 | GLPINYTTRRI [LAMA2_Y2894]
0.909 | TIQSMYGCDVG [HLA-B_Y123_L119I]
0.738 | DLDLTYIFPNI [PTEN_Y27_YF]
0.811 | KQELVYPNKKL [OPTN_Y356_T357P]
0.905 | CPYNLYAEQLS [HGD_Y40]
1.03 | RHYVYYYSYLL [PTEN_Y177_R173H]
0.774 | EPAVLYNLKDR [MYH7_Y103]
1.15 | CTTIHNNFMCN [TP53_Y234_Y234N_YF]
0.636 | KGEDFYYVTCH [FHL1_Y149_C150Y]
0.921 | NVSILYTASQA [CTNNA1_Y222_P219S]

The remaining lines, values behind:

Sequence | SH2 binding enrichment
FGSRLYKFAFK [FANCD2_Y458_L456R_YF] | 0.877
SLAARYFNWVS [FLT4_Y1230_YF] | 2.68
VAVVQYSGMGQ [COL6A1_Y878_T881M] | 0.763
LIDTVYSSSSA [OR4C12_Y71] | 0.603
VHFLVYHHHHH [CACNA1H_Y519_H516Y_YF] | 1.21
DVLVEYQGEGR [GNS_Y416] | 0.907
MTEEQYIKMNR [ARFGEF2_Y797_K794E] | 0.674
GGQSVYHVHLH [HINT1_Y109] | 1.19
KMTGRYEMFAR [UPB1_Y362_YF] | 1.36
NFNPNYCFAGK [ALK_Y1096_D1091N_YF] | 0.876
LSPNMYNSKLW [TARSL2_Y457] | 1.09
HNELYYEEAEH [VANGL1_Y345] | 0.871
PEADKYRLTYA [FGG_Y300] | 0.806
LLTALYFISRG [KCNH2_Y780] | 2.34
QCTSAHPLQPE [NANS_Y188_Y188H] | 0.672
LARDMYDKEYY [MET_Y1230] | 0.881
HLQQSYLPRGT [TEX45_Y396] | 0.442
VTNHIYTWVDP [DFNB31_Y234] | 1.14
VGTKRYMAPKV [ACVRL1_Y375_E379K] | 1.19
PGLKGYPGLSG [COL4A2_Y306_R304K] | 0.652

What follows are sequences tested against Hck (UniProt P08631) (assay: phosphorylation enrichment, bacterial display (enrichment ratio); higher = better substrate or ligand; peptides without Tyr show the background).
Chain of Hck (P08631 whole entry, looked up): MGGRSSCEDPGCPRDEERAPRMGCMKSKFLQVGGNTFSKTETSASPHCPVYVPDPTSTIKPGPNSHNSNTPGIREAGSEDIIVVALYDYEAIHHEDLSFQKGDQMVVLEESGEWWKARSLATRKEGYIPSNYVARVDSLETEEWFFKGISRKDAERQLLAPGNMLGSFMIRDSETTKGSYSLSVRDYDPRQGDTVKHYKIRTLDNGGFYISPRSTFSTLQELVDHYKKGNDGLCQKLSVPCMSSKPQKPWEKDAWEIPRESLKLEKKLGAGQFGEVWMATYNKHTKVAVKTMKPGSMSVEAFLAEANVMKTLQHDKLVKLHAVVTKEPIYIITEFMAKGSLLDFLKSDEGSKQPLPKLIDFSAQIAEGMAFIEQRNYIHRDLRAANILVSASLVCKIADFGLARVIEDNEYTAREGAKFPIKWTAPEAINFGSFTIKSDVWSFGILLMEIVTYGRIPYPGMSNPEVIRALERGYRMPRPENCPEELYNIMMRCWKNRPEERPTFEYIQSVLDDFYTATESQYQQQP

Sequence | phosphorylation enrichment
QVQQIYSDSDL [MIB1_Y376_R371Q] | 3.84
FGSRLYKFAFK [FANCD2_Y458_L456R_YF] | 0.439
SLAARYFNWVS [FLT4_Y1230_YF] | 0.532
VAVVQYSGMGQ [COL6A1_Y878_T881M] | 0.416
LIDTVYSSSSA [OR4C12_Y71] | 3.42
VHFLVYHHHHH [CACNA1H_Y519_H516Y_YF] | 0.416
DVLVEYQGEGR [GNS_Y416] | 0.496
MTEEQYIKMNR [ARFGEF2_Y797_K794E] | 0.493
TSESSYFKSLN [NGEF_Y288_A286S_YF] | 0.455
GGQSVYHVHLH [HINT1_Y109] | 0.686
KALSLYTKLMN [STAM_Y371_E366K] | 0.537
GLPINYTTRRI [LAMA2_Y2894] | 0.569
KMTGRYEMFAR [UPB1_Y362_YF] | 0.505
NFNPNYCFAGK [ALK_Y1096_D1091N_YF] | 0.651
TIQSMYGCDVG [HLA-B_Y123_L119I] | 0.502
DLDLTYIFPNI [PTEN_Y27_YF] | 1.76
LSPNMYNSKLW [TARSL2_Y457] | 0.831

Sequence | phosphorylation enrichment
HNELYYEEAEH [VANGL1_Y345] | 0.798
PEADKYRLTYA [FGG_Y300] | 1.62
LLTALYFISRG [KCNH2_Y780] | 1.24
KQELVYPNKKL [OPTN_Y356_T357P] | 0.293
QCTSAHPLQPE [NANS_Y188_Y188H] | 0.771
CPYNLYAEQLS [HGD_Y40] | 2.39
RHYVYYYSYLL [PTEN_Y177_R173H] | 2.49
LARDMYDKEYY [MET_Y1230] | 0.765
HLQQSYLPRGT [TEX45_Y396] | 0.661
EPAVLYNLKDR [MYH7_Y103] | 0.662
VTNHIYTWVDP [DFNB31_Y234] | 3.06
CTTIHNNFMCN [TP53_Y234_Y234N_YF] | 0.517
VGTKRYMAPKV [ACVRL1_Y375_E379K] | 0.327
PGLKGYPGLSG [COL4A2_Y306_R304K] | 0.434
KGEDFYYVTCH [FHL1_Y149_C150Y] | 0.724
NVSILYTASQA [CTNNA1_Y222_P219S] | 0.547
